Common to all, as to format: binding
One assay addresses T1, TNKS2 ARC1 (Homo sapiens, UniProt Q9H2K2).
T1 construct: TNKS2 ARC1 (20–178); His6-GST; made in house; host or cells: E. coli
T1 sequence (Q9H2K2 whole entry, looked up): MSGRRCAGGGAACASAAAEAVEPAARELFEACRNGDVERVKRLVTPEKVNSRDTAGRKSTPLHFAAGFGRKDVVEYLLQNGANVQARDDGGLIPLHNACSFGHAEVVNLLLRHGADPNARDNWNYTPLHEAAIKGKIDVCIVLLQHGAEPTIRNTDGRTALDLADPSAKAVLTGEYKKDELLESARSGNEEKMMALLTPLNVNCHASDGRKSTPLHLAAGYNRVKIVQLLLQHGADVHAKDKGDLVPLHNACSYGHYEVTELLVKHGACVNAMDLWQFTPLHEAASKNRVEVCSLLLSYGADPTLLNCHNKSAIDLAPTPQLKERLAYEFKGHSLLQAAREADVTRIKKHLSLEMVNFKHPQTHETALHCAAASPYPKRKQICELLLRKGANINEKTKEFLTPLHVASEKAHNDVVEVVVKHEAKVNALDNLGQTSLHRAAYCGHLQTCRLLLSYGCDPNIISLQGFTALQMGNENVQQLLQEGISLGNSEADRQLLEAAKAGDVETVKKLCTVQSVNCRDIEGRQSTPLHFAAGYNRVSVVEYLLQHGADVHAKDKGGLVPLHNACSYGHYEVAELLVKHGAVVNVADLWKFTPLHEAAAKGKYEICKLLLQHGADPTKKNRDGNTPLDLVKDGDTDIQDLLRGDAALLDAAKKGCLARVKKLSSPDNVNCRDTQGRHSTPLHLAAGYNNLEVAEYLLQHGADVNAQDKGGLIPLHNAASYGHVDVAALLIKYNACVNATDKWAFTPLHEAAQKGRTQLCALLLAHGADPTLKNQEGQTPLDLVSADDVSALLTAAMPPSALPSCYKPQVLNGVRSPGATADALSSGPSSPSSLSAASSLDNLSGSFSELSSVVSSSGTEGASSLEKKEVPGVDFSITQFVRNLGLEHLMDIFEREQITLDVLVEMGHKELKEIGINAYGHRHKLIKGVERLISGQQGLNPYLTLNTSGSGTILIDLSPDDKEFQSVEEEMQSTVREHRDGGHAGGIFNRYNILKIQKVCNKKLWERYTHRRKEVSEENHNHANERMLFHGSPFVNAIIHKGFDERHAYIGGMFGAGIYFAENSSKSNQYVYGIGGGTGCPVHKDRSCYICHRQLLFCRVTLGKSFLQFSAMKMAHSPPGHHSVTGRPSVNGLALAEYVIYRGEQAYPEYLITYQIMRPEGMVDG
Nature of the assay: Differential scanning fluorimetry (DSF). The settings on record: ARC 20 μM + 3BP2 TBM peptide 200 μM, inflection point method. The protocol: (§1) For the experiment shown in Fig. 2A, ARC and 3BP2 TBM peptide concentrations were 20 and 200 μM, respectively, in 50 mM HEPES-NaOH pH 7.5, 100 mM NaCl, 2 mM TCEP and a total volume of 25 μL. SYPRO Orange was added at 5×. Data were recorded from 4–95 °C, with the temperature ramped by 0.5 °C every 15 s, using a CFX384 thermal cycler (Bio-Rad). Data were analysed by non-linear regression in GraphPad Prism using a Boltzmann sigmoid with linear baselines. ΔTm values were determined using the inflection point method.

For another assay, the target named is T2, TNKS2 ARC4 (Homo sapiens, UniProt Q9H2K2).
T2 construct: The cell was filled with TNKS2 ARC4 (488–649); His6-GST; made in house; host or cells: E. coli
T2 sequence (Q9H2K2 488-649): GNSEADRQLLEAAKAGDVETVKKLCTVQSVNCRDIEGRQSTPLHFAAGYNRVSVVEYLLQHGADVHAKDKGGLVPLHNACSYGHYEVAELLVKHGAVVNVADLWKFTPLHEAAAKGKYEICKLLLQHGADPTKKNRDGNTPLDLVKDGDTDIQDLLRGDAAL
Nature of the assay: Differential scanning fluorimetry (DSF). The settings on record: ARC 20 μM + 3BP2 TBM peptide 200 μM, inflection point method. The protocol:
as §1
On the technique in general: In DSF a fluorescence change marks the thermal transition of the protein.

A further assay deals with T3, TNKS2 ARC5 (Homo sapiens, UniProt Q9H2K2).
T3 construct: followed by TNKS2 ARC5 (1 μL, 100 μM stock); His6-GST; made in house; host or cells: E. coli
Description: WaterLOGSY NMR assay. From the text: 39 hits from the DSF screen were suitable for follow-up by ligand-observed NMR methods. We re-purchased fragments and performed T2 relaxation-edited (CPMG-edited) and waterLOGSY experiments for each fragment with TNKS2 ARC5. We explored saturation transfer difference (STD) NMR, also using TNKS2 ARC5, but the assay was not sensitive enough to produce a reliable binding signal, likely due to the relatively small size of a single ARC protein (data not shown). High ligand concentrations were required to achieve sufficient signal, which in turn could lead to false-positive hits due to non-specific binding.
Using the relaxation-edited assay, we tested each fragment in three independent measurements (Fig. 2C), unless we obtained two negative results (non-binding) in the first two experiments. […] As a negative NOE for the compound-only sample could indicate aggregation, we flagged these compounds as potentially problematic. We identified 14 fragments that bound to TNKS2 ARC5 by both relaxation-edited and waterLOGSY methods (0.78% hit rate). […]
Fragments were dispensed in duplicate into a 384-well plate (250 nL, 100 mM stock in DMSO). […] Solutions were transferred to 1.7 mm NMR tubes using a Gilson liquid handling system. ^1H NMR spectra were recorded, with the DMSO signal dampened. […]

With “LPHLQRSPPDGQSFRSW [3BP2 16-mer peptide, 16-mer TBM peptide derived from 3BP2, W added for A280, N-terminus acetylated, C-terminus amide-capped; positive control, reference compound]”, the ΔTm – broadly, the shift of the melting midpoint relative to a reference – with TNKS2 ARC1 was 1.34 °C; with TNKS2 ARC4, 0.63 °C.
For the compound `O=C(NCc1ccco1)c1ccc2nccnc2c1` [compound 9], the waterLOGSY result on TNKS2 ARC5 is given as “negative NOE signal”.

The values above are taken from publication PMC6911004, “Fragment-based screening identifies molecules targeting the substrate-binding ankyrin repeat domains of tankyrase” (Scientific Reports, 2019).
